Among the data in US20120225437A1 are percent of maximal binding in the presence of NaCl (ionic strength control) values, retold here.

The target of this experiment is Rat MBL-A (mannan-binding lectin A) (rat) (UniProt P19999). Nature of the experiment: SPR, MBL immobilised, MASP-1 at 100 nM, equivalent concentrations of NaCl up to 550 mM. In general terms: In SPR one partner is held on a chip, and binding of the other changes the refractive index at the surface.

“MASP-1ent, modified form of rat MASP-1 in which the zymogen cleavage site has been replaced by an enterokinase recognition site (DDDDK) (from UniProt Q8CHN8 25-704) (enzyme)”: the percent of maximal binding in the presence of NaCl (ionic strength control) is over 60%.
